Assay results published in the nanobody polyreactivity screen of Harvey et al. (2022).

Test: yeast display, Sf9 membrane polyspecificity reagent, FACS + sequencing; frameworks hold sequencing errors
Outline: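 Galactose induction of a Saccharomyces cerevisiae BJ5465 synthetic nanobody display library ran 36–48 hours. The cells were then stained for 1 hour at 4 °C with 10% biotinylated, detergent-solubilized Sf9 membrane reagent, pulled down on streptavidin microbeads and FACS-sorted into low and high (top ~1%) gates on expression and reagent-binding fluorescence. Labels for polyreactivity follow the gate of origin.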

| Sequence | polyreactivity (PSR sort gate) |
| --- | --- |
| QVQLVESGGGLVQAGGSLRLSCASSGFTFKDYAMGWYRQAPGKERELVAAISYSGGSTYYADSVKGRFTLSRDNAKNTVYLQMNSLKPEDTAVYYCARYFRRSAIYTRPRMDYWGQGTQVTVSS | high polyreactivity |
| QVQLVESGGGLVQAGGSLRLSCAASGSTFFRNAMGWYRQAPGKERELVASITSGGNTKYADSVKGRFTISRDNAKNTVYLQMNSLKPEDTAVYYCAALFYHFARYSRLYNYWGQGTQVTVSS | low polyreactivity |
| QVQLVESGGGLVQAGGSLRLSCAASGSIFTQNAMGWYRQAPGKERELVAAITSTGGSTYYADSVKGRFTISRDNAKNTVYLQMNSLKPEDTAVYYCNADGFRRAALHDYWGQGTQVTVSS | high polyreactivity |
| QVQLVESGGGLVQAGGSLRLSCAASGRTFYYNAMGWSRQAPGKEREFVARITRSGTNTYYADSVKGRFTISRDNAKNTVYLQMNSLKPEDTAVYYCARRGTSSYRRYWLDSASNMDYWGQGTQVTVSS | high polyreactivity |
| QVQLVESGGGLVQAGGSLRLSCAASGNIFRYYVMGLYRQAAGKEREFVAAITSSGGSTYYADSVKGRFTISRDNAKKTVYLQMNSLKPEDTAVYYCAKDYWDPGWAEYDYWGQGTQVTVSS | low polyreactivity |
| QVQLVESGGGLVQAGGSLRLSCAASGSIFYWYAMGWYRQAPGKERELVAAITWSGGSTYYADSVKGRFTISRDNAKNTVYLQMNSLKPEDTAVYYCNKVPYYGAYSSYDYWGQGTQVTVSS | high polyreactivity |
| QVQLVESGGGLVQAGGSLRLICAASGRIYWTYAMGWYRQAPGKERDLVAAISSGGSTNYADSVKGRFTISRDNAKNTVYLQMNSLKPEDTAVYYCAADRWYREYDYWGQGTQVTVSS | low polyreactivity |
| HVQLVESGGGLVQAGGSLRLSCAASGSIFIKYAMGWYRQAPGKERELVAAISRRGGSTYYADSVKGRFTISRDNAKNTVYLQMNSLKPEDTAVYYCAAVNIRFGYWGQGTQVTVSS | high polyreactivity |
| QVQLVESGGGLVQAGGSLRLSCAASGRILIGYTMGWYRQAPGTERELVARNNYSGGSTYYADSVKGRFTISRDISKNTVYLQMNSLKPEESGDYYCAADVRRGYYTWPPRRVYYWGQGTQVTVSS | high polyreactivity |
| QDQLVESGGGLVQAGGSLRLSCAASGIIFQYYAMGWYRQAPGKERELVAAISWSGGSTYYADSVKGRFTISRDNAKNTVYLQMNSLKPEDTAVYYCAARSRSYWPYEGDYWGQGTQVTVSS | low polyreactivity |
| QVQLVESGGGLVQAGGSLRLSCAASGGIFGLYTMGWYRQAPGKERELVAGISKRGTRTRYADSVKGRFTISRDNAKNTVYLQMNSLKPEDTAVYYCNADYYVSKLDYWGQGTQVTVSS | high polyreactivity |
| QVQLVESGGGLVQAGGSLRLSCAASGFTFTRYAMGWYRQAPGKERELVAAITRSGSSTYYADSVKGRFTISRDNAKNTVYLQMNSLKQEDTAVYYCAARLHSPRYRYDYWGQGNQVTVSS | high polyreactivity |
| QVQLVKSGGGLVQAGGSLRLSCAASGSIFGYNTKGWYRQAPGKERELVATITYRGGSTYYADSVKGRFTISRDNAKNTVYLQMNRLKPEDTAVYYCARRVTRYPDTTWVSAGDYWGQGTQVTVSS | high polyreactivity |
| QVQLVESGGGLVQAGGSLRLSCAASGRIFRGNTMGWYRQAPGKERELVATINGRGGSTYYADSVKGRFTISRDNAKNTVYLQMNSLKPVDTAVYYCAARRGYPRFEYWGQGTQVTVSS | high polyreactivity |
| QVQLVESGGGVVQAGGSLRLSCAASGSTFYYNAMGWNRQAPGKERELVARISRSGGSTYADSVKGRFTISRDNAKNTVYLQMNSLKPEDTAVYYCNADAYGTPEFTSYAVRYDYWGQGTQVTVSS | low polyreactivity |
| QVQLVESGGGLVQAGGSLRLSCAASGSTFYVNAMGWYRQAPGKERELVAVISTGGSTYYADSVKGRFTISRDNAKNTVYLQMNSLKPEDTAVYYCAKRDLPDRSGTPNVIPFDYWGQGSQVTVSS | low polyreactivity |

| Sequence | polyreactivity (PSR sort gate) |
| --- | --- |
| QVQLVESGGGLVQAGGSLRLSCAASGSIFGRYAMGWYRQAPGKERELVASISRRCGSTYYADSVKGRFTISRDNAKNTVYLQMNRLKPEDTAVYDCNVAPWSASSANLEDYWGQGNQVTVSS | high polyreactivity |
| QVQLVESGGGLVQAGGSLRLSCAASGFTFPVNTMGWYRQAPGKERELVAAISTSGAGTYYADSVKGRFTISRDNAKNTVYLQMNSLKPEDTAVYYCNADSQPGPYPGIRYDYWGQGTQVTVSS | high polyreactivity |
| QLQLVESGGGLVQAGCSLRLSCADSGRNYTMGRYRQAPGKERELVDASSKSGGSTSYADSVKGRFTISRDNAKNTVYLQLNSLKPEDTAVYYCATALRGSQAYSVRAMNYWGQATQVTVSS | high polyreactivity |
| PVQLVESGGGLVQAGGSLRLSCAASGRTVWNTMGWDRQSPGNERELVAAISYSGGTTYYADSVKGRFTISRDNAKNTVYLQMNSLKPEDTAVYYCNAVTYGWTAYYKGKRYDYWGQGTQVTVSS | high polyreactivity |
| QVQLVESGGGLVQAGGSLRLSCAASGSIFPPNAMGWYRQAPGKERELVAAISRRGGSTYYADSVKGRFTISRDNAKNTVYLQMNSLKPEDTAVYYCAARGGQMEYWGQGTQVTVSS | high polyreactivity |
| QVQLVESGVGLVQAGGSLRLSCAASGRIFEDNAMGWYRQAPGKERELVAAIDFSGGDTYYADSVKGRFTISRDNAKNTVYLQMYSLKPEDTAVYYCAAGRSGWGYVSWGQGTQVTVSS | low polyreactivity |
| QVHLVESAGGLVQAGGSLRLSCDASGFIFPRYDMGSYRQAPGKEREMVAAISRRGGSTNYADSVKGRFTISRDNAKNTVYLQMNSLKPEATAVYYCNADTTGYSSYGYDYWGQGSQVTVSS | high polyreactivity |
| QDQLGESGGGLVQAGGSLRLSCAASGSIFETYVMGWYRQAPGKERELVAAINSGGSTNYADSVKGRFTISRDNAKNTVYLQMNSLKAEDTAVYYCNADWFTPAQPWYRYFIRYDYWGQGTQVTVSS | low polyreactivity |
| QVQLVESGGGLVQAGGSLRLSCAASGSILPGNAMGWSRQAPGKERELVAAITYSGGSTYADSVKGRFTISRDNAKNTVYLQINSLKPEDTAVYYCNADFIDPSVYDYNYWGQGTQVTVSS | low polyreactivity |
| QVQLVESGGGLVQAGGSLRLSCAASGSTFNYYAMGWNRQAPVKERELVATISWSGDSTYADSVKGRFTISRDNAKNTVYLQMHSLKPEDTAVYYCATSGDWWCFRYDYWGQGTQVTVSS | low polyreactivity |
| QVQLVESGRGLVQAGGSLRLSCAASGSIFPTYALGCYRQAPGKERELVAAISSGENTYYADSVKGRFTISRDNAKNTVSLQMNSLKPEDTAVYFCAAADNYGIRDLYASDGTQNYYWGQGTQVTVSS | low polyreactivity |
| QVQLVESGGGLVQAGGSLRLRCAASGLMFYDNMGCYRQAPGKERELVAAISSSGGSTSYADSVKGRFTISRDNAKNTVYLQMNSLKPEDTAVYYCAAKWSLVRDCPKYDYWGQGTQVTVSS | low polyreactivity |
| QVQLEESGGGLVQAGGSLRLSCAASGRTSRVYAMGWYRQAPGKERELVAAITWRGGNTYYADSVKGRFTISRDNAKNTVYLQMNSLKPEDTAVYYCARDNGSPYHYYYWGQGTQVTVSS | high polyreactivity |
| QVHLVESGGGLVQAGGSLRLSCPASGLTFYRYAMGLYRPAPGKERELVAAISSGGNTYYADSVKGRFTISRDNAKNTVYLQMNSMKPEDTAVYYCAAESYALRGHPGYYYWGQGSQVTVSS | high polyreactivity |
| QVQLVESGGGLVQAGGSLRLSCAASGSTFYLNAMGWYRQAPGKERELVAAIDYRGGSTYYADSVKGRFTISRDNAKNTVYLQMNSLKPEDTAVYYCNADYVYVHYQPGYYWGQGTQVTVSS | low polyreactivity |
